Literature values as cited in article PMC10876095.
Like-named read-outs stand apart in the source and are kept apart here.

Tests used:
[1] = target: tau (Homo sapiens) (UniProt P10636); experiment: SPR
[2] = target: tau (Homo sapiens) (UniProt P10636); experiment: SPR; remark: listed apart in the source
[3] = target: tau (Homo sapiens) (UniProt P10636)

UniProt P10636, sequence (P10636 2-758): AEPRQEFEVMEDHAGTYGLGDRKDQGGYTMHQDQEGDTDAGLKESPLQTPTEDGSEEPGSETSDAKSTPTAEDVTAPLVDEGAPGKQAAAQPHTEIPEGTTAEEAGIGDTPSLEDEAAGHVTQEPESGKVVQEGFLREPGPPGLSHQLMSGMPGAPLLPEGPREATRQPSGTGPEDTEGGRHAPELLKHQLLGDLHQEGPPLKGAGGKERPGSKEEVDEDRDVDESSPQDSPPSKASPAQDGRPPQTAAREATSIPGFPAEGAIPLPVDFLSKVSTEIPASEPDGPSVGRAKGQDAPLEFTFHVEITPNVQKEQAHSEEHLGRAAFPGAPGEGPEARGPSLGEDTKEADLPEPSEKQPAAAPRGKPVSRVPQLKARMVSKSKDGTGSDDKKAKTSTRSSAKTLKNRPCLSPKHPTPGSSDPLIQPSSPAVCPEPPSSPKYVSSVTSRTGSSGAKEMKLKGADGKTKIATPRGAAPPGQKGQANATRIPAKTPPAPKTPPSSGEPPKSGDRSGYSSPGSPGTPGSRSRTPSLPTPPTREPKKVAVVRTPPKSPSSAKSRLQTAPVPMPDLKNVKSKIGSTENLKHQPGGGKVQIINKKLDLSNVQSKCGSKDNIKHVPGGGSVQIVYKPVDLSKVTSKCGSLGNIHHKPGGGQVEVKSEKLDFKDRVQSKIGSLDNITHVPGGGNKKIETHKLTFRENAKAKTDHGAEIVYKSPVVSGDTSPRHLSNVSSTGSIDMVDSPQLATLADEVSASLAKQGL

14-3-3ζ (from UniProt P63104)
Kd [1]: 312 nM
Kd [2]: 22 nM
Kd [3]: 900 nM
